One assay deals with murine IL-21 (murine, UniProt Q9ES17 18-146). Nature of the assay: cell-based or functional assay.
The target of assay [1] is T1, human complement component C1q (human, UniProt P02745 23-245; P02746 28-253; P02747 29-245).
T1 construct: Native C1q in diluted human serum
As to the kind of experiment: C1q ELISA, antibody coated at 5 µg/ml, human serum 1:50. As to the method:
In order to determine whether cell-surface binding by anti-IL-21R antibodies is likely to lead to complement-dependent cytotoxicity (CDC), the antibodies were tested for their ability to bind to the complement component C1q in an ELISA. […] Diluted antibodies (100 μl) were coated onto a COSTAR® high-binding ELISA plate (Corning Life Sciences, Lowell, Mass.) overnight at 4° C. Plates were washed 3× with PBS/Tween-20 and blocked with 200 μl of blocking buffer (0.1 M NaPO₄, 0.1 M NaCl, 0.1% gelatin, 0.01% Tween) for 1 hr at RT. Human serum previously determined to contain C1q (Quidel, San Diego, Calif.) was diluted 1:50 in PBS. After 1 hr of blocking, plates were washed and 100 μl of diluted serum was added to each well and incubated for 2 hr at RT on a shaker. Following three washes, 100 μl A of 0.1 μg/ml chicken polyclonal anti-human C1q antibody (AbCam, Cambridge, Mass.) was added to each well and incubated for 1 hr at RT. Plates were again washed and incubated with 100 μA of a rabbit polyclonal antibody to chicken Ig-Y—HRP diluted 1:4000 (AbCam) for 1 hr at RT. Plates were washed and developed with TMB for 5 min, followed by 50 μA of 1 M H₂SO₄ to stop the reaction, and then read at 450 nm.

In assay [2] the target is rat IL-21R expressed on cells (rat). As to the kind of experiment: cell-based or functional assay.
Assay [3] concerns the target T2, murine IL-21R extracellular domain His-Flag fusion protein (murine, UniProt Q9JHX3 20-237).
T2 construct: Biotinylated in the ELISAs; also called mIL-21R-H/F; murine IL-21R-H/F
Nature of the assay: competition ELISA: scFv mixed with biotinylated murine IL-21R-H/F, added to plate-bound 18A5 IgG (competitor); captured receptor detected with HRP-streptavidin, A450. As to the method:
Blocked plates were washed 3× with PBS, and 50 μl/well of scFv/IL-21R mixtures were transferred to the appropriate plates and incubated for 1 hr at RT. Plates were washed 5× with PBS prior to the addition of a 1:6000 dilution of horseradish peroxidase-conjugated streptavidin (Southern Biotech, Birmingham, Ala.) secondary antibody to detect bound biotinylated mIL-21R-H/F. Plates were then incubated for 1 hr at RT and washed 7× with PBS. Signal was developed using 3,3′,5,5′-tetramethylbenzidine (TMB), the reaction stopped with H₂SO₄, and the absorbance read at 450 nm on an ENVISION™ plate reader (Perkin Elmer).

T1 sequence (P02745 23-245, chain 1 of 3): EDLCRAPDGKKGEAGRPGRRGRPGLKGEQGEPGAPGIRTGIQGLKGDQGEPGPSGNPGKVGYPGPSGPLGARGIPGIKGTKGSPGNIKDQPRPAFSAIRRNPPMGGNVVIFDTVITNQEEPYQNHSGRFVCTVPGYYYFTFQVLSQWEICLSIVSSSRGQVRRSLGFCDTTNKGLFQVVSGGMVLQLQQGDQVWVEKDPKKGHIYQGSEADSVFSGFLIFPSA
T1 sequence (P02746 28-253, chain 2 of 3): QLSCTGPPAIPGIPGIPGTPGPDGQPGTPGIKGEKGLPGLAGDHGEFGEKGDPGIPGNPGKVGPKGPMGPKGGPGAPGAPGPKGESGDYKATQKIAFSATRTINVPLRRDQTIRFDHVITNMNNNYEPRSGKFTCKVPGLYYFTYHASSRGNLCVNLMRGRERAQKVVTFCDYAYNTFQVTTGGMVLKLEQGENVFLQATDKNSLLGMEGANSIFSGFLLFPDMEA
T1 sequence (P02747 29-245, chain 3 of 3): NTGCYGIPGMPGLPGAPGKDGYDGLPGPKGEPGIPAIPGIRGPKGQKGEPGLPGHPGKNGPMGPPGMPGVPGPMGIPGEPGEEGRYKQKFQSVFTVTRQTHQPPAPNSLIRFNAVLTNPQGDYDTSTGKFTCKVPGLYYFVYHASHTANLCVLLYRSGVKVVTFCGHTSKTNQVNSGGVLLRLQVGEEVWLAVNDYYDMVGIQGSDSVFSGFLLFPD

B1: murine IL-21R-Fc (Fc fusion, not shown: a dimerising Fc or GST)
chain: not shown
For the molecule B1, in the assay with murine IL-21, the “Murine IL-21R-BaF3 Neutralization IC50” value came out at 0.04 nM.

B2: AbX (antibody, human IgG1)
VH: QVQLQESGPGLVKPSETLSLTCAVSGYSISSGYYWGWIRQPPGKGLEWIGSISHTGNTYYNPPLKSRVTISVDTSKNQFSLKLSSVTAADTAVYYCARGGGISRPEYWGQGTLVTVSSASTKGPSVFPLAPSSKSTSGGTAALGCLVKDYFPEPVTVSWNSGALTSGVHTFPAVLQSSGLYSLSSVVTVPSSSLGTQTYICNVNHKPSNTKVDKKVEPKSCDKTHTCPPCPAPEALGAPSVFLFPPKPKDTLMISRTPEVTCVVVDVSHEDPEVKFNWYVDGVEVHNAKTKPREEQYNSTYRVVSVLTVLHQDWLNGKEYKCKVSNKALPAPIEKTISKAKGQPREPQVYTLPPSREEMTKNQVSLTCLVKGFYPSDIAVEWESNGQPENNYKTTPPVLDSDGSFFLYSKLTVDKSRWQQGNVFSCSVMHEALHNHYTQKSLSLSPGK
VL: SSELTQDPAVSVALGQTVRITCQGDSLRTYYASWYQQKPGQAPVLVIYGKHKRPSGIPDRFSGSSSGNTASLTITGAQAEDEADYYCVARSNKGNPHVLFGGGTQLTVLGQPKAAPSVTLFPPSSEELQANKATLVCLISDFYPGAVTVAWKADSSPVKAGVETTTPSKQSNNKYAASSYLSLTPEQWKSHRSYSCQVTHEGSTVEKTVAPTECS
notes: Same variable domains as AbT; residue limits derived as for m29; also called VHPDM/VL9; copies: 2 + 2
As to B2, the binding result in assay [1] is “no binding”.

B3: AbW (antibody, human IgG1, V domains shown)
VH: QVQLQESGPGLVKPSETLSLTCAVSGYSISSGYYWGWIRQPPGKGLEWIGSISHTGNTYYNPPLKSRVTISVDTSKNQFSLKLSSVTAADTAVYYCARFMGFGRPEYWGQGTLVTVSS
VL: SSELTQDPAVSVALGQTVRITCQGDSLRTYYASWYQQKPGQAPVLVIYGKHKRPSGIPDRFSGSSSGNTASLTITGAQAEDEADYYCVTRSVKGNPHVLFGGGTQLTVL
For B3, in assay [2], the “IC50, rat T cell proliferation, experiment 1” value worked out at 159 nM and the “IC50, rat T cell proliferation, experiment 2” value was found to be 94.7 nM.

B4: 18A5 parent scFv (scFv)
scFv: QVQLQESGPGLVKTSETLSLTCAVSGYSISSGYYWGWIRQPPGKGLEWIGSISHTGNTYYNPPLKSRVTISVDTSKNQFSLKLSSVTAADTAVYYCARGGGISRPEYWGKGTLVTVSSGGGGSGGGGSGGGGSALSSELTQDPPVSVALGQTVTLTCQGDSLRTYYASWYQQKSGQAPILLLYGKHKRPSGIPDRFSGSTSGDTASLTITGAQAEDEADYYCNSRDSSGNPHVLFGGGTQLTVL
notes: scFv format of parental 18A5 (not germlined); different molecule from the 18A5 IgG coated on the plate; also called parental 18A5 scFv; scFv parental clone 18A5
B4: the binding result in assay [3] is on record as “binds”.

Source of the values: patent US20120276102A1 (Pfizer, published 2012).
